# Results taken from patent US20260250318A1, “COMPOSITIONS AND METHODS FOR CROSSING THE BLOOD BRAIN BARRIER” (VOYAGER THERAPEUTICS, INC., priority 2022, published 2026).
# Values joined by “and” are separate entries in the source; they are usually repeats but may differ in a detail not shown here. Equal values may be shown once.
# B1: TTM-002 capsid variant (AAV particle comprising the TTM-002 AAV9 capsid variant) (other)
# chain 1: MAADGYLPDWLEDNLSEGIREWWALKPGAPQPKANQQHQDNARGLVLPGYKYLGPGNGLDKGEPVNAADAAALEHDKAYDQQLKAGDNPYLKYNHADAEFQERLKEDTSFGGNLGRAVFQAKKRLLEPLGLVEEAAKTAPGKKRPVEQSPQEPDSSAGIGKSGAQPAKKRLNFGQTGDTESVPDPQPIGEPPAAPSGVGSLTMASGGGAPVADNNEGADGVGSSSGNWHCDSQWLGDRVITTSTRTWALPTYNNHLYKQISNSTSGGSSNDNAYFGYSTPWGYFDFNRFHCHFSPRDWQRLINNNWGFRPKRLNFKLFNIQVKEVTDNNGVKTIANNLTSTVQVFTDSDYQLPYVLGSAHEGCLPPFPADVFMIPQYGYLTLNDGSQAVGRSSFYCLEYFPSQMLRTGNNFQFSYEFENVPFHSSYAHSQSLDRLMNPLIDQYLYYLSKTINGHDSPHKSGQNQQTLKFSVAGPSNMAVQGRNYIPGPSYRQQRVSTTVTQNNNSEFAWPGASSWALNGRNSLMNPGPAMASHKEGEDRFFPLSGSLIFGKQGTGRDNVDADKVMITNEEEIKTTNPVATESYGQVATNHQSAQAQAQTGWVQNQGILPGMVWQDRDVYLQGPIWAKIPHTDGNFHPSPLMGGFGMKHPPPQILIKNTPVPADPPTAFNKDKLNSFITQYSTGQVSVEIEWELQKENSKRWNPEIQYTSNYYKSNNVEFAVNTEGVYSEPRPIGTRYLTRNL
# chain 2: TAPGKKRPVEQSPQEPDSSAGIGKSGAQPAKKRLNFGQTGDTESVPDPQPIGEPPAAPSGVGSLTMASGGGAPVADNNEGADGVGSSSGNWHCDSQWLGDRVITTSTRTWALPTYNNHLYKQISNSTSGGSSNDNAYFGYSTPWGYFDFNRFHCHFSPRDWQRLINNNWGFRPKRLNFKLFNIQVKEVTDNNGVKTIANNLTSTVQVFTDSDYQLPYVLGSAHEGCLPPFPADVFMIPQYGYLTLNDGSQAVGRSSFYCLEYFPSQMLRTGNNFQFSYEFENVPFHSSYAHSQSLDRLMNPLIDQYLYYLSKTINGHDSPHKSGQNQQTLKFSVAGPSNMAVQGRNYIPGPSYRQQRVSTTVTQNNNSEFAWPGASSWALNGRNSLMNPGPAMASHKEGEDRFFPLSGSLIFGKQGTGRDNVDADKVMITNEEEIKTTNPVATESYGQVATNHQSAQAQAQTGWVQNQGILPGMVWQDRDVYLQGPIWAKIPHTDGNFHPSPLMGGFGMKHPPPQILIKNTPVPADPPTAFNKDKLNSFITQYSTGQVSVEIEWELQKENSKRWNPEIQYTSNYYKSNNVEFAVNTEGVYSEPRPIGTRYLTRNL
# chain 3: MASGGGAPVADNNEGADGVGSSSGNWHCDSQWLGDRVITTSTRTWALPTYNNHLYKQISNSTSGGSSNDNAYFGYSTPWGYFDFNRFHCHFSPRDWQRLINNNWGFRPKRLNFKLFNIQVKEVTDNNGVKTIANNLTSTVQVFTDSDYQLPYVLGSAHEGCLPPFPADVFMIPQYGYLTLNDGSQAVGRSSFYCLEYFPSQMLRTGNNFQFSYEFENVPFHSSYAHSQSLDRLMNPLIDQYLYYLSKTINGHDSPHKSGQNQQTLKFSVAGPSNMAVQGRNYIPGPSYRQQRVSTTVTQNNNSEFAWPGASSWALNGRNSLMNPGPAMASHKEGEDRFFPLSGSLIFGKQGTGRDNVDADKVMITNEEEIKTTNPVATESYGQVATNHQSAQAQAQTGWVQNQGILPGMVWQDRDVYLQGPIWAKIPHTDGNFHPSPLMGGFGMKHPPPQILIKNTPVPADPPTAFNKDKLNSFITQYSTGQVSVEIEWELQKENSKRWNPEIQYTSNYYKSNNVEFAVNTEGVYSEPRPIGTRYLTRNL
# Experiments:
# [1] = molecular target: T1, human ALPL expressed on cells (alkaline phosphatase tissue-nonspecific isozyme, NM_000478.4) (human, UniProt P05186 18-501); assay: cell-based or functional assay
# T1 sequence: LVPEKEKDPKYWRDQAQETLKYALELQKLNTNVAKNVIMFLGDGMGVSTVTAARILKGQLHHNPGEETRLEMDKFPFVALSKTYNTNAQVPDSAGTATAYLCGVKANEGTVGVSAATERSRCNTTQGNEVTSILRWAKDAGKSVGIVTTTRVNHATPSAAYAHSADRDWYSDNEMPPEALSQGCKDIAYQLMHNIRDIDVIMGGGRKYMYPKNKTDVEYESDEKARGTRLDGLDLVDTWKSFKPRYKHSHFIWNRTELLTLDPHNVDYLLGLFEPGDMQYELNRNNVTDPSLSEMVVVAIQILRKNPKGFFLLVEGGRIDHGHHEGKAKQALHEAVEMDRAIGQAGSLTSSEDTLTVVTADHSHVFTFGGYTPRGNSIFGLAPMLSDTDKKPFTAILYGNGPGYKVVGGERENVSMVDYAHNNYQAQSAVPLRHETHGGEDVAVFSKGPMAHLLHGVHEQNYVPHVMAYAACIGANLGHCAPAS
# [2] = molecular target: T1, human ALPL expressed on cells (alkaline …); assay: cell-based or functional assay; remark: listed apart in the source
# [3] = molecular target: T2, murine ALPL ortholog expressed on HEK 293T cells (NM_001287172.1) (mouse, UniProt P09242 18-501); assay: cell-based or functional assay
# T2 sequence: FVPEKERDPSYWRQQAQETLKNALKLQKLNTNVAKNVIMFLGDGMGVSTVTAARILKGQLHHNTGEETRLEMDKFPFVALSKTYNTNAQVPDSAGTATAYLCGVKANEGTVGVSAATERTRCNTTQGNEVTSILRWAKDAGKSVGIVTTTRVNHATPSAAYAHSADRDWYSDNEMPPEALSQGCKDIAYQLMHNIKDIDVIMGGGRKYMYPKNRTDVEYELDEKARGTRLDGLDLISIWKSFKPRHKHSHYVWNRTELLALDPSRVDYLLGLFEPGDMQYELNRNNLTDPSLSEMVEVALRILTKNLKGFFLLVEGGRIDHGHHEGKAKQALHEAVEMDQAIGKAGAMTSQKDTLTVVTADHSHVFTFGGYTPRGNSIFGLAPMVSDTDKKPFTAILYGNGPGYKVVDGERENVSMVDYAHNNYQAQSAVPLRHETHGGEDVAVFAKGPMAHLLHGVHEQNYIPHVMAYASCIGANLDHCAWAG
# [4] = molecular target: T3, His-tagged ALPL (recombinant, soluble; SPR, BLI and ELISA of Examples 8 and 13) (UniProt P05186 18-502)
# T3 sequence: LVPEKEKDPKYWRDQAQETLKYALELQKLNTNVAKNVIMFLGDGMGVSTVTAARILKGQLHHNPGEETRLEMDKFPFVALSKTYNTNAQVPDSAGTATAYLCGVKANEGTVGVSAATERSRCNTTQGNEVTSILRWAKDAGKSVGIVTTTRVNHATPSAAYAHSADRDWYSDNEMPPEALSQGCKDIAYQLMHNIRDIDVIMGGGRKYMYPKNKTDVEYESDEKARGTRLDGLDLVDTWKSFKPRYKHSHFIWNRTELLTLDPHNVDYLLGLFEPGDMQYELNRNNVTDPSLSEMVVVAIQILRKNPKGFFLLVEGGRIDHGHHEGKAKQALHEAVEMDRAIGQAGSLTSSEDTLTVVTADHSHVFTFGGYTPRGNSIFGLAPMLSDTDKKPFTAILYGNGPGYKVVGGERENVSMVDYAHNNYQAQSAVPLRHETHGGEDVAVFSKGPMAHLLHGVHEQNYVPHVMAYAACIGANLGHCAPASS
# [5] = molecular target: T4, AAVR (universal AAV entry factor) expressed on HEK 293T cells (UniProt Q8IZA0 1-1049); assay: binding/internalization: AAV incubated 2 or 3 h with AAVR transfected HEK 293T cells, washed, viral genomes quantified
# T4 construct: whole, on cells; also called AAVR positive control
# T4 sequence: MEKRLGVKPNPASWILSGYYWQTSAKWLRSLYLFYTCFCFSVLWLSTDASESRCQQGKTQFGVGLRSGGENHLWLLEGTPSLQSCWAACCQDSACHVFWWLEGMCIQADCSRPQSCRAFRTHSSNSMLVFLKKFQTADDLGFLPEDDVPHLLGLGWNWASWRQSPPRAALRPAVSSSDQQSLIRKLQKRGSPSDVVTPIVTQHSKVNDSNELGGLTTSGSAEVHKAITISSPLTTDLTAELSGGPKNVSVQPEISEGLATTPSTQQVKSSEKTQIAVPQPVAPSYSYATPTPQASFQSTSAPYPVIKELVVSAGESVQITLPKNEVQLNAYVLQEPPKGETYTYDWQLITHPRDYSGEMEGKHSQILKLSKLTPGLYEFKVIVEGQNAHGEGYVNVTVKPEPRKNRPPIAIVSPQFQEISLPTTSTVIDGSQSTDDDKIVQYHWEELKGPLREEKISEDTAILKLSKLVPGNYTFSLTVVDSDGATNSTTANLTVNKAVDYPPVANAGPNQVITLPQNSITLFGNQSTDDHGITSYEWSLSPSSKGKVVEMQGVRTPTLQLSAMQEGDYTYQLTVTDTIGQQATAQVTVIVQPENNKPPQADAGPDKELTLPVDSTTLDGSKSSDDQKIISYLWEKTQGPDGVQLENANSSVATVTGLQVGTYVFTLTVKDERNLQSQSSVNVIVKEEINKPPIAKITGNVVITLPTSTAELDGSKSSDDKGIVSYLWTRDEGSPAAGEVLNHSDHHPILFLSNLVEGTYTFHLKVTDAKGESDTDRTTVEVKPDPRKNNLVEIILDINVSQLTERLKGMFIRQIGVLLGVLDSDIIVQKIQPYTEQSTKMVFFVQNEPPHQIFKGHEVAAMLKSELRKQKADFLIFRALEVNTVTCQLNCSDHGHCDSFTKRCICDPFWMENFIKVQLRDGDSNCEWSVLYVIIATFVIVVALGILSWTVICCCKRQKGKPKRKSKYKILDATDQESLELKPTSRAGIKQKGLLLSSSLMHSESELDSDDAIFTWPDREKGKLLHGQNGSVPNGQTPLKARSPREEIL
binder,measurement,setting,value
B1,"transcytosis assay: virus detected in the bottom chamber (percent to the initial virus, qPCR), MDCK ALPL overexpressing cells against MDCK cells that did not express ALPL",[1],149 fold
same,"transcytosis assay: virus detected in the bottom chamber (percent to the initial virus, qPCR), MDCK ALPL overexpressing cells, TTM-002 against AAV9",[1],252 fold
same,"transcytosis assay: virus detected in the bottom chamber (percent to the initial virus, qPCR), single MDCK clone expressing ALPL, TTM-002 against AAV9",[1],7480 fold
same,fold change in luciferase activity relative to the pCMV6 control cells (cells transfected with human ALPL protein),[2],24 fold
same,fold change in luciferase activity relative to the pCMV6 control cells (cells transfected with murine ALPL protein),[3],24 fold
same,Kd,[4],32 nM and 26.8 nM and 47 nM and 52.3 nM
same,kon,[4],39800 M⁻¹ s⁻¹ and 43600 M⁻¹ s⁻¹ and 39400 M⁻¹ s⁻¹ and 98000 M⁻¹ s⁻¹
same,fold change in viral gene expression (2^-ΔΔCT) relative to pCMV6 transfected cells,[5],3.2 fold
